Molecular target: T1, Rev1 C-terminal domain (876–985) of the Rad5–Rev1 fusion protein (S. cerevisiae, UniProt P12689 876-985)
T1 sequence (looked up): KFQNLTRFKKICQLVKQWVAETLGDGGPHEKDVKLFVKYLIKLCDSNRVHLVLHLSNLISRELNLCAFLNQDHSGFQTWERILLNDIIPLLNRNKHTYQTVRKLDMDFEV
Assay: crystal structure

Does EQEERKRFFNDDLDTS (peptide, UniProt P32849 5-20, looked up) [Rad5 peptide (5–20) of the Rad5–Rev1 fusion protein] bind?
Result: binds

From paper PMC4914093 (Nucleic Acids Research, 2016)
